The values below come from patent US20110301104A1, “Transition state structure of orotate phosphoribosyl transferases and uses thereof” (priority 2008, published 2011).

As a reminder, the Km is the concentration of substrate that gives half-maximal velocity. The kcat is the number of substrate molecules converted per active site and unit of time at saturation. What is called kcat/Km is the second-order rate constant that governs catalysis at low substrate concentration.

Assay in all cases: purified protein, by the assay type
Substrate in series [1]: O=C(O)CP(=O)(O)O
As to conditions: other: PA as slow substrate.

Substrate in series [2]: O=C(O)c1cc(=O)[nH]c(=O)n1[C@@H]1O[C@H](COP(=O)(O)O)[C@@H](O)[C@H]1O
Format: biochemical, human. The following applies: 25° C., pH 8.0. The method, then:
(§1) Expression and Purification of PfOPRT and HsOPRT. The pDEST14 vectors encoding the two OPRT genes were transformed into BL21-AI E. coli competent cells and grown in LB+Amp (100 μg mL^−1) at 37° C. to an OD600 of 0.6. Protein expression was induced by adding 0.02% L-arabinose with overnight growth at 37° C. Cells were harvested by centrifugation at 4° C., weighted and resuspended in lysis buffer (20 mM Tris-HCl, 500 mM NaCl and 5 mM Imidazole, pH=7.9, 3 mL/gram cell pellet). Lysozyme (100 μg mL^−1), DNase I (10 μg mL^−1) and protease inhibitor (1 tablet/8 grams of cells) (Roche Applied Science, Indianapolis, Ind.) were added to the solution. Following disruption in a French Press, cell lysate was centrifuged at 30,000 g for […] at 4° C. […] The 6×His-OPRTs were eluted with a gradient of imidazole (20 mM ˜500 mM). The OPRT bands were visualized on SDS-PAGE gels and fractions with high purity were pooled, made to 10% glycerol and 10 mM β-ME (final concentration), concentrated and dialyzed overnight at 4° C. to remove imidazole. His-tags were removed during dialysis by the presence of thrombin (1 unit/0.1 mg). His-tag free OPRTs were purified by Superdex 200 26/60 Gel filtration column, concentrated and stored at −80° C. […] Reactions were monitored by the absorbance increase at 295 nm to give an extinction coefficient of 3.67 mM^−1 cm^−1.

Substrate in series [3]: O=C(O)c1cc(=O)[nH]c(=O)n1[C@@H]1O[C@H](COP(=O)(O)O)[C@@H](O)[C@H]1O
Format: biochemical, Plasmodium falciparum. The following applies: 25° C., pH 8.0, 25.0 °C. The method, then:
as §1

Substrate in series [4]: O=C(O)CP(=O)(O)O
Format: biochemical, Plasmodium falciparum. The following applies: other: PA as slow substrate. The protocol: as §1

Where [5] appears, read: other: OMP with PA (20 mM) as substrate.
[6] abbreviates: other: OMP with PPi (1 mM) as substrate.

B1: HsOPRT (Homo sapiens) (protein)
chain: MAVARAALGPLVTGLYDVQAFKFGDFVLKSGLSSPIYIDLRGIVSRPRLLSQVADILFQTAQNAGISFDTVCGVPYTALPLATVICSTNQIPMLIRRKETKDYGTKRLVEGTINPGETCLIIEDVVTSGSSVLETVEVLQKEGLKVTDAIVLLDREQGGKDKLQAHGIRLHSVCTLSKMLEILEQQKKVDAETVGRVKRFIQENVFVAANHNGSPLSIKEAPKELSFGARAELPRIHPVASKLLR
notes: This HsUMPase truncation construct only expresses its HsOPRT domain; His6 (thrombin-cleavable) (N, cleaved yes); made in house; host or cells: E. coli BL21-AI
For the protein B1, in series [1], the Km was 3840 µM and the catalytic constant (kcat) amounted to 0.017 s⁻¹. For the same protein, in series [2] (setting [5]), the Km amounted to 2.14 ± 0.61 µM, the turnover number (kcat) is 0.017 ± 0.002 s⁻¹ and the kcat/Km stood at 7900 M⁻¹ s⁻¹. Further, in series [2] (setting [6]), the Michaelis-Menten constant (Km) is 1.55 ± 0.61 µM, the turnover number (kcat) was found to be 0.10 ± 0.01 s⁻¹ and the kcat/Km came to 65000 M⁻¹ s⁻¹.

B2: PfOPRT (Plasmodium falciparum 3D7) (protein)
chain: MTTIKENEFLCDEEIYKSFVHLKDKICEERKKKELVNNNIDNVNFNDDDDNNYDDDGNSYSSYIKEMKKLLKVVLLKYKALKFGEFILKSKRKSNYFFSSGVLNNIVSSNIICFLLSELILKNKLSFDYLLGASYKGIPMVSLTSHFLFESKKYSNIFYLYDRKEKKEYGDKNVIVGNLDDDDKDILNLKKKTKNNQDEEKKNIIIIDDVFTCGTALTEILAKLKTYEHLKVVAFIVLLNRNEYEINENNQKIYFKDIFEKRVGIPLYSILSYKDDIQSMI
notes: His6 (thrombin-cleavable) (N, cleaved yes); made in house; host or cells: E. coli BL21-AI
Turning to B2, in series [3] (setting [5]), the Km came to 2.90 ± 1.09 µM, the turnover number (kcat) stood at 0.014 ± 0.002 s⁻¹ and the kcat/Km amounted to 4800 M⁻¹ s⁻¹. For the same protein, in series [3] (setting [6]), the Michaelis constant (Km) came out at 3.73 ± 1.36 µM, the turnover number (kcat) came to 1.96 ± 0.29 s⁻¹ and the specificity constant (kcat/Km) turned out to be 530000 M⁻¹ s⁻¹. In series [4], the Michaelis-Menten constant (Km) is 1590 µM and the kcat came out at 0.023 s⁻¹.
